Laboratory results: the RNAGym collection of RNA variant scans (doi:10.1073/pnas.2313332121)

B1: TPR t1 (parent)
chain: GACCAAUCUGCCCUCAGAGCUCGAGAACAUCUUCGGAUGCAGAGGAGGCAGGCUUCGGUGGCGCGAUAGCGCCAACGUCCUCAACCUCCAAUGCAUCCCACCACAUGAUGAUGCCUGAAGAGCCUUGGUUUUUUG

Variants of: B1
Assay: polymerase ribozyme fitness, log enrichment relative to wild type (log ratio); higher = more active; in vitro selection for triplet polymerase activity
Method in brief: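 Fitness compares each genotype's enrichment to that of the wild type on a logarithmic scale, averaging replicates with inverse-variance weights. The logarithm is base 2. Enrichment came from Illumina sequencing of input and output libraries after one triplicate round of in vitro selection, which included frozen incubation at −7 °C, of PCR-built, transcribed mutant libraries of each subunit of a heterodimeric triplet polymerase ribozyme. Only genotypes with ≥10 input reads and ≥1 read per output were kept.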

Variant | polymerase ribozyme fitness (log ratio)
G42U C49A C53A U59C C82U | -2.94
G42A A46U C53A U87A | -2.21
G42A G44U C99A A100U U109A | -5.27
G42U C72G C99A A103C C123U | -6.66
G42A G63C C86A | -3.7
G42A G122A | -2.59
A43C G63A U78C C104A G120C | -6.92
G42C A43U C86U U96C | -2.55
G42A G93A C114U | -3.01
G42A G60C C82A | -3.4
G42U A119U | -1.27
G42U U125A | -1.61
G42C C89G | -1.06
G42A C85A C94U | -3.73
G42A C89U | -1.16
G42C C79U A95G U129C | -2.57
A43C C53G G61U G128A | -4.58
G42U A74U | -2.19
G42U G71C A111C U130C | -3.75
G42U G69C C123A | -3.23
G42C G63A G93C G113U | -5.92
A43C C53G C70U A95C | -5.1
G42U U54A G110U U133G | -4.37
G42C G61A C124A U125A | 0.506

Variant | polymerase ribozyme fitness (log ratio)
G42A G120U | -1.82
A43C G44C A118U U133G | -1.11
G42U C73A U125A | -1.74
G42A A46G G120U | -2.64
G42A U59G C73U U112G C123A | -4.46
G42A G45C C49G U96A | -3.8
G42U C56G | -1.08
G42U C56U | -1.29
G42C G48C U55C | -1.95
G42A C62U A83U C85U C124G G128U | -3.77
A43C G48C G113C A119C G120U A121G | -2.55
G42A G52C C62A | -4.83
G42U G71U G127U | -2.72
G42A U59A | -1.76
G42U U54G A68G | -5.22
A43C C88U G93A | -1.96
A43C G61A | -2.52
G42A G45C C123U | -1.9
G42A U112G | -2.1
G42C C49G C72G | -3.71
G42A G44A C62U G63A U112G G120C | -5.64
G42U C70G | -4.95
G42A C89A A108G | -4.56
A43C G60U U78C C104A G120C | -5.55

Variant | polymerase ribozyme fitness (log ratio)
G42U C62A C73U U112C U130G | -3.26
G42C G61U G120A | -0.458
A43C G48A | -2.56
G42C G61C C79U A90C C115G G120U G122A | -4.78
G42A G44A G47U C64U | -4.22
G42C A74U U96G C124U | -1.27
A43C C49U C70A C102U G110A G128C U131G | -6.44
G42A G48U C56U C114U U131C | -3.37
A43C G69U C99U | -3.77
A43C G44U A111G | -1.62
G42U A43C | -1.95
G42U G128A | -3.14
G42U G71U C101U | -1.49
G42C A118G | -1.93
G42A G135U | -2.72
G42A G47U G57U G58U | -3.58
G42U C73A C114G | -1.95
G42C C70A C104U | -4.4
G42C C85G | -3.39
G42C G69U A91U C102U | -0.697
A43C C56U C79G | -5.29
G42C C56A | -1.76
G42C U55A G113U G120U C123U U125A | -3.47
G42U G71C | -3.19

Variant | polymerase ribozyme fitness (log ratio)
A43C C72A G122A | -3.17
A43C G47A | -4.53
G42C G77A | -1.99
G42U G63A C82U | -2.86
G42A G77U G120C | -1.93
G42C U87G | -1.08
G42C U87A | -1.23
G42U G45U C88G G110A | -3.96
G42A G52C | -2.26
G42A U129G | -2.39
G42C C49A | -1.88
G42C C76A U78A | -2.31
G42C G128C | -4.09
G42C G128A | -3.12
G42A G61A A83U A121U | 0.412
G42U G48A G52C C56G G69U G127U | -3.16
A43C G44C G71C A118U U133G | -1.6
G42A C88A | -1.56
G42A C88G | -2.63
G42U G44U C53U G69U C79A G127U | -3.88
G42U G47A G69A | -4.71
G42C G128U U130A G135U | -4.23
G42U C72A U96C | -1.5
G42A G110U | -3.64

Variant | polymerase ribozyme fitness (log ratio)
G42C C72U G113C | -2.98
G42U C62A | -3.21
G42U U109G | -5.53
G42C C72U | -1.39
G42A G44C G47C C97U G120U U130C | -3.09
G42U G63A A111G U112G C115A | -6
G42U A50C C62U A84G C114G | -4.07
G42A C94G | -3.05
G42A C72A C123A | -1.85
G42C U116C U125A | -3.61
A43C G47A C56U G57A C62U A103C | -6.45
G42C A50U C76G A111U | -6.27
G42U G120A | -1.14
G42A A119G | -0.491
G42C U109A | -5.54
G42A A100C U112G | -4.73
G42A G44C A46U G71U A111G G120A | -3.41
G42A C70A C85U | -4.88
A43C G77C | -2.27
A43C G77A | -2.79
G42A G61A C115A | -1.62
G42U G47C C49G | -2.84
G42U G58C U87C | -0.174
G42U G45A | -1.25

Variant | polymerase ribozyme fitness (log ratio)
G42U G110A | -2.74
G42U G63A | -2.77
G42U G63C | -2.22
G42A U54C G57A | -3.66
G42U A100C U116C | -4.27
G42U C72G G117U | -4.8
G42U U55G U125A | -1.45
A43C G48A C88U | -1.82
G42C G61C | -4.07
A43C C56G C62G A68G G120A | -7.42
G42C A66G C89G | -4.07
G42U G77U U106A G120C | -2
G42A G45C | -2.81
G42U G71A A100U | -4.8
A43C C56U C82A A91U G93U U96C C124G | -2.46
G42U G58C C82G U87C | -2.71
G42A G48A C80A U96A | -6.92
G42A G69C | -3.78
G42U U54A A91U A121C C124A | 0.144
G42U C53U U59G C89A C124A | -0.557
A43C C53A A95U U109A U130G | -7.32
G42A U55A U112G C115A | -2.35
G42U C53G G69U | -0.375
G42U G93C | -2.17

Variant | polymerase ribozyme fitness (log ratio)
G42U C82G C115G | -3.58
G42U C56U C115G | -2.13
A43C C72A | -2.05
A43C G45A G48C | -3.39
A43C G61U G117A | -3.52
G42A G69U C89G | -0.811
G42U C53G C56A | -1.17
G42C U106A C115U G120U | -4.34
G42U C101U G113C | -2.52
G42C G69U A91U C102U C123U | -0.432
G42U G44U G45A U54G C89G | -2.57
G42U A84U C115A G127A | -4.77
G42U C73G | -2.39
G42U C89U | -0.954
G42A C72U C85U | -2.92
G42U G69U C115A | -1.45
G42U C72A | -0.339
G42U C72G | -2.53
G42C U54G C88A C102A | -5.41
A43C G47U G52A C56U | -4.62
A43C A50G G61A C115A U116C | -4.2
G42C A111G | -1.3
A43C C49A G52A C73U U81C A95C C123A | -6.02
